Data taken from paper PMC11251166.
pKd: −log10 of the molar value.

Target: ADP-ribosylated ubiquitin (ADPR-Ub) (UniProt P0CG48)
Assay: ITC

MavL_N322A
pKd: 5.22
